The results in this text go back to US20240261403A1 (published 2024).

This test addresses T1, EGFR L858R peptide on HLA-A*33:03 (human).
T1 peptide: HVKITDFGR
The test is described as follows: multimer staining.

B1: TCR (ii) with CDR3 alpha SEQ ID NO: 2 and CDR3 beta SEQ ID NO: 14 (Table 2, rank 2) (TCR, V domains shown)
Valpha: KQEVTQIPAALSVPEGENLVLNCSFTDSAIYNLQWFRQDPGKGLTSLLLIQSSQREQTSGRLNASLDKSSGRSTLYIAASQPGDSATYLCAATGTYKYIFGRGTSLIVHP
Vbeta: NAGVTQTPKFQVLKTGQSMTLQCAQDMNHEYMSWYRQDPGMGLRLIHYSVGAGITDQGEVPNGYNVSRSTTEDFPLRLLSAAPSQTSVYFCASSPEFARALDNQPQHFGPGTRLTVL
Regarding B1, the binding result was “recognises”.

B2: TCR (i) with CDR3 alpha SEQ ID NO: 1 and CDR3 beta SEQ ID NO: 13 (Table 2, rank 1) (TCR, V domains shown)
Valpha: KQEVTQIPAALSVPEGENLVLNCSFTDSAIYNLQWFRQDPGKGLTSLLLIQSSQREQTSGRLNASLDKSSGRSTLYIAASQPGDSATYLCAFIGHGGSQGNLIFGRGTSLIVHP
Vbeta: NAGVTQTPKFQVLKTGQSMTLQCAQDMNHEYMSWYRQDPGMGLRLIHYSVGAGITDQGEVPNGYNVSRSTTEDFPLRLLSAAPSQTSVYFCASSMQGAMSEQFFGPGTRLTVL
As for B2, the binding result is reported as “recognises”.
